Tests used:
[1] = Body weight / tolerability in xenograft mice; type: in vivo; conditions: MEDI-573 alone
Text: (§1) Although proliferation of SK-ES-1 and SJCRH30 cells was inhibited by MEDI-573 in vitro in the absence of exogenous IGFs, the in vivo growth of these two models was not effected by MEDI-573 treatment.
(§2) The combination treatments were tolerated as no significant body weight loss was observed (FIG. 17B).

SJCRH30 = test: Xenograft efficacy study in mice; type: in vivo; conditions: SJCRH30 model
Text: as §1
(§3) For in vivo efficacy studies, five million sarcoma cells in 50% matrigel were inoculated subcutaneously into each female athymic nude mice. When tumors reach approximately 150-200 mm^3, mice were randomly assigned into groups (10 mice per group). MEDI-573 was administrated intraperitoneally twice per week at indicated doses. The dose regimen for AZD2014 was oral once every day, for rapamycin was intraperitoneal injection every 3 days. Tumor volumes were measured twice weekly with calipers. Tumor growth inhibition was calculated on the last day of study relative to the initial and final mean tumor volume of the control group.

KHOS xenograft model = test: Xenograft efficacy study in mice; type: in vivo; conditions: KHOS xenografts, MEDI-573 alone
Text: as §1, §3

[2] = test system: SJSA-1 (an osteosarcoma model) xenografts; test: Xenograft efficacy study in mice; type: in vivo; conditions: SJSA-1 xenografts, MEDI-573 alone
Text: as §1, §3

SK-ES-1 = test: Xenograft efficacy study in mice; type: in vivo; conditions: SK-ES-1 model
Text: as §1, §3

human IGF-2 = molecular target: T1, human IGF-2 (Homo sapiens, UniProt P01344); test: IGF levels in tumor and plasma after injection of human IGF; type: in vivo, mice; conditions: RD-ES tumor lysates and plasma, intraperitoneal pretreatment for 6 hours, 15 min after IGF-2 injection
T1 construct: purchased R&D Systems (Minneapolis, Minn.)
T1 sequence (P01344 25-91 limits assumed): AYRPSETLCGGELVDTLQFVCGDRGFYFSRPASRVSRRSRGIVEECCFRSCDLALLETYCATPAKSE
Method: (§4) Thus, human IGF-1 and IGF-2 (IGF-1/-2) were injected into mice in an attempt to understand the role of IGF ligands in driving tumor growth when delivered by endocrine or paracrine secretion, and the effect of MEDI-573 in inhibiting this function. Fifteen minutes after IGF-1 or IGF-2 injection, high levels of IGF-1 or IGF-2 were detected both in RD-ES tumor and plasma.
(§5) For in vivo mechanism of action (MOA) studies, when tumors reached approximately 400 mm^3, a single dose of MEDI-573 was given. Tumor and plasma samples were collected 4 hr after dosing to assess the effect of MEDI-573 on autocrine IGF signaling. In another set of mice, 6 hr after MEDI-573 dosing, human IGF-1 or IGF-2 was injected by tail-vein. Tumor and plasma samples were collected 15 min after IGFs injection to assess the effect of MEDI-573 on IGF-1/-2 induced signaling.

human IGF-1 = molecular target: T2, human IGF-1 (Homo sapiens, UniProt P05019); test: as above; type: in vivo, mice; conditions: RD-ES tumor lysates and plasma, intraperitoneal pretreatment for 6 hours, 15 min after IGF-1 injection
T2 construct: purchased R&D Systems (Minneapolis, Minn.)
T2 sequence (P05019 49-118 limits assumed): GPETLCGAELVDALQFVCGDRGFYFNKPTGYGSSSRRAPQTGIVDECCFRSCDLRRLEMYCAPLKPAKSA
Method: as §4, §5

[3] = test system: RD-ES (Ewing's sarcoma) xenografts; test: Xenograft efficacy study in mice; type: in vivo
Text: as §1, §2, §3

pS6K = test: In vivo mechanism of action study, immunoblot of tumors; conditions: RD-ES-bearing mice injected with human IGF-1/-2, MEDI-573 pretreatment
Method: IGF-1/-2 injection did change the baseline level of p4EBP-1.
as §5

murine IGF-1 = murine IGF-1 (Mus musculus, UniProt P05017); test: Binding affinity
Sequence of murine IGF-1 (P05017 1-118 limits assumed): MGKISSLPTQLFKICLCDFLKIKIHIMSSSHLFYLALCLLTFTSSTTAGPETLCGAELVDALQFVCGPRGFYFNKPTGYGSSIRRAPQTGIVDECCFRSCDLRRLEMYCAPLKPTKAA

clone P12 (P12) tumors = test: Growth of implanted tumors in mice; type: in vivo; conditions: P12 tumors overexpressing hIGF-1 and hIGF-1R
Text: MEDI 573 selectively binds to human insulin-like growth factor (hIGF)-I and hIGF-2 and […]. MEDI-573 targets the IGF-1 and IGF-2 ligands and thereby inhibits IGF-mediated signal transduction. […] Furthermore, MEDI-573 has potential to achieve this without perturbing glucose homeostasis, which has been an adverse effect observed with investigational agents that target IGF 1R. The results of in vitro studies have shown that MEDI-573 inhibited both IGF-1 and IGF-2-stimulated phosphorylation of IGF 1R and that of downstream signaling proteins including Akt and MAPK in a number of engineered mouse embryonic fibroblast NIH-3T3 cell lines transfected to express human IGF-1R and either human IGF-1/-2. Furthermore, MEDI-573 inhibited autocrine phosphorylation of these signaling molecules.

B1: MEDI-573: fully human monoclonal IgG2 lambda antibody that binds IGF-2 with cross reactivity to IGF-1; hybridoma 7.159.2, ATCC PTA-7424 (antibody)
heavy: QVQLVQSGAEVKKPGASVKVSCKASGYTFTSYDINWVRQATGQGLEWMGWMNPNSGNTGYAQKFQGRVTMTRNTSISTAYMELSSLRSEDTAVYYCARDPYYYYYGMDVWGQGTTVTVSSASTKGPSVFPLAPCSRSTSESTAALGCLVKDYFPEPVTVSWNSGALTSGVHTFPAVLQSSGLYSLSSVVTVPSSNFGTQTYTCNVDHKPSNTKVDKTVERKCCVECPPCPAPPVAGPSVFLFPPKPKDTLMISRTPEVTCVVVDVSHEDPEVQFNWYVDGVEVHNAKTKPREEQFNSTFRVVSVLTVVHQDWLNGKEYKCKVSNKGLPAPIEKTISKTKGQPREPQVYTLPPSREEMTKNQVSLTCLVKGFYPSDIAVEWESNGQPENNYKTTPPMLDSDGSFFLYSKLTVDKSRWQQGNVFSCSVMHEALHNHYTQKSLSLSPGK
light: QSVLTQPPSVSAAPGQKVTISCSGSSSNIENNHVSWYQQLPGTAPKLLIYDNNKRPSGIPDRFSGSKSGTSATLGITGLQTGDEADYYCETWDTSLSAGRVFGGGTKLTVLGQPKAAPSVTLFPPSSEELQANKATLVCLISDFYPGAVTVAWKADSSPVKAGVETTTPSKQSNNKYAASSYLSLTPEQWKSHRSYSCQVTHEGSTVEKTVAPTECS
With B1 the body weight [1] was “no loss of body weight was observed”, the in vivo growth (SJCRH30) was “not effected” and the response in vivo (KHOS xenograft model) was “did not respond”. For the same molecule, the tumor growth inhibition [2] was “Comparable results”, the in vivo growth (SK-ES-1) was “not effected” and the “reduction of IGF-2 levels” value (human IGF-2) was “almost completely”. For the same molecule, the “reduction of IGF-1 levels” value (human IGF-1) was “approximately 50%”, the tumor growth inhibition ([3]; RD-ES xenograft model, AZD2014 combination study (FIG. 16A)) was 52% and the tumor growth inhibition ([3]; RD-ES xenograft model, rapamycin combination study (FIG. 17A)) was 59%. For the same molecule, the tumor growth inhibition ([3]; RD-ES xenografts, 10 mg/kg twice weekly intraperitoneally) was 25%, the tumor growth inhibition ([3]; RD-ES xenografts, 30 mg/kg twice weekly intraperitoneally) was 44% and the tumor growth inhibition ([3]; RD-ES xenografts, 60 mg/kg twice weekly intraperitoneally) was 52%. For the same molecule, the “IGF-induced pS6K in tumors” value (pS6K) was “dramatic reduction”, the binding affinity (murine IGF-1) was “low binding affinity” and the “growth of implanted tumors” value (clone P12 (P12) tumors) was “significantly inhibited the growth”.

Source: patent US20160324962A1, “COMPOSITIONS AND METHODS FOR TREATING SARCOMA” (MEDIMMUNE, LLC, priority 2013, published 2016)
